Laboratory results: patent publication US20210277140A1

Biological target: CD47 on Raji B cells (human) (UniProt Q08722)
Experiment: cell-based or functional assay

- whole cell eating of Raji B cells by CAR-P^FcRγ macrophages, antibody at 20 µg/ml: 2.5 fold
B1: anti human CD47 (mouse antibody), clone B6H12 (antibody, from another filing, IgG1, V domains shown)
VH: EVQLVESGGDLVKPGGSLKLSCAASGFTFSGYGMSWVRQTPDKRLEWVATITSGGTYTYYPDSVKGRFTISRDNAKNTLYLQIDSLKSEDTAIYFCARSLAGNAMDYWGQGTSVTVSS
VL: DIVMTQSPATLSVTPGDRVSLSCRASQTISDYLHWYQQKSHESPRLLIKFASQSISGIPSRFSGSGSGSDFTLSINSVEPEDVGVYYCQNGHGFPRTFGGGTKLEIK
